In US12104181B2, “Compositions and methods for treating viral infections targeting TRIM7” (THE BOARD OF REGENTS OF THE UNIVERSITY OF TEXAS SYSTEM, priority 2021, dated 2024):

Tested on: coxsackievirus B3 (CVB3-GFP)
Assay type: cell-based
Conditions: HeLa cells, replicate R1; for Percent Infected R1: GFP-positive cells within RFP-positive gate

B1: PCGF6: human RING type E3 ligase expressed from lentiviral vector (protein, UniProt Q9BYE7 1-350, looked up)
Polycomb group RING finger …: MEGVAVVTAGSVGAAKTEGAAALPPPPPVSPPALTPAPAAGEEGPAPLSETGAPGCSGSRPPELEPERSLGRFRGRFEDEDEELEEEEELEEEEEEEEEDMSHFSLRLEGGRQDSEDEEERLINLSELTPYILCSICKGYLIDATTITECLHTFCKSCIVRHFYYSNRCPKCNIVVHQTQPLYNIRLDRQLQDIVYKLVINLEEREKKQMHDFYKERGLEVPKPAVPQPVPSSKGRSKKVLESVFRIPPELDMSLLLEFIGANEGTGHFKPLEKKFVRVSGEATIGHVEKFLRRKMGLDPACQVDIICGDHLLEQYQTLREIRRAIGDAAMQDGLLVLHYGLVVSPLKIT
Percent Infected R1: 94.6% | Z score R1: 0.08

B2: RNF130: human RING type E3 ligase expressed from lentiviral vector (protein, UniProt Q86XS8 28-419, looked up)
E3 ubiquitin-protein ligase …: DNASQEYYTALINVTVQEPGRGAPLTFRIDRGRYGLDSPKAEVRGQVLAPLPLHGVADHLGCDPQTRFFVPPNIKQWIALLQRGNCTFKEKISRAAFHNAVAVVIYNNKSKEEPVTMTHPGTGDIIAVMITELRGKDILSYLEKNISVQMTIAVGTRMPPKNFSRGSLVFVSISFIVLMIISSAWLIFYFIQKIRYTNARDRNQRRLGDAAKKAISKLTTRTVKKGDKETDPDFDHCAVCIESYKQNDVVRILPCKHVFHKSCVDPWLSEHCTCPMCKLNILKALGIVPNLPCTDNVAFDMERLTRTQAVNRRSALGDLAGDNSLGLEPLRTSGISPLPQDGELTPRTGEINIAVTKEWFIIASFGLLSALTLCYMIIRATASLNANEVEWF
Percent Infected R1: 91.4% | Z score R1: 0.04

B3: MUL1: human RING type E3 ligase expressed from lentiviral vector (protein, UniProt Q969V5 1-352, looked up)
Mitochondrial ubiquitin …: MESGGRPSLCQFILLGTTSVVTAALYSVYRQKARVSQELKGAKKVHLGEDLKSILSEAPGKCVPYAVIEGAVRSVKETLNSQFVENCKGVIQRLTLQEHKMVWNRTTHLWNDCSKIIHQRTNTVPFDLVPHEDGVDVAVRVLKPLDSVDLGLETVYEKFHPSIQSFTDVIGHYISGERPKGIQETEEMLKVGATLTGVGELVLDNNSVRLQPPKQGMQYYLSSQDFDSLLQRQESSVRLWKVLALVFGFATCATLFFILRKQYLQRQERLRLKQMQEEFQEHEAQLLSRAKPEDRESLKSACVVCLSSFKSCVFLECGHVCSCTECYRALPEPKKCPICRQAITRVIPLYNS
modifications: lentiviral expression
notes: human RING type E3 ligase expressed from lentiviral vector
Percent Infected R1: 80.1% | Z score R1: −0.11

B4: CHFR: human RING type E3 ligase expressed from lentiviral vector (protein, UniProt Q96EP1 1-664, looked up)
E3 ubiquitin-protein ligase …: MERPEEGKQSPPPQPWGRLLRLGAEEGEPHVLLRKREWTIGRRRGCDLSFPSNKLVSGDHCRIVVDEKSGQVTLEDTSTSGTVINKLKVVKKQTCPLQTGDVIYLVYRKNEPEHNVAYLYESLSEKQGMTQESFEANKENVFHGTKDTSGAGAGRGADPRVPPSSPATQVCFEEPQPSTSTSDLFPTASASSTEPSPAGRERSSSCGSGGGGISPKGSGPSVASDEVSSFASALPDRKTASFSSLEPQDQEDLEPVKKKMRGDGDLDLNGQLLVAQPRRNAQTVHEDVRAAAGKPDKMEETLTCIICQDLLHDCVSLQPCMHTFCAACYSGWMERSSLCPTCRCPVERICKNHILNNLVEAYLIQHPDKSRSEEDVQSMDARNKITQDMLQPKVRRSFSDEEGSSEDLLELSDVDSESSDISQPYVVCRQCPEYRRQAAQPPHCPAPEGEPGAPQALGDAPSTSVSLTTAVQDYVCPLQGSHALCTCCFQPMPDRRAEREQDPRVAPQQCAVCLQPFCHLYWGCTRTGCYGCLAPFCELNLGDKCLDGVLNNNSYESDILKNYLATRGLTWKNMLTESLVALQRGVFLLSDYRVTGDTVLCYCCGLRSFRELTYQYRQNIPASELPVAVTSRPDCYWGRNCRTQVKAHHAMKFNHICEQTRFKN
Percent Infected R1: 87.2% | Z score R1: −0.02

B5: RFPL2: human RING type E3 ligase expressed from lentiviral vector (protein, UniProt O75678 1-378, looked up)
Ret finger protein-like 2: MEVAELGFPETAVSQSRICLCAVLCGHWDFADMMVIRSLSLIRLEGVEGRDPVGGGNLTNKRPSCAPSPQDLSAQWKQLEDRGASSRRVDMAALFQEASSCPVCSDYLEKPMSLECGCAVCLKCINSLQKEPHGEDLLCCCSSMVSRKNKIRRNRQLERLASHIKELEPKLKKILQMNPRMRKFQVDMTLDANTANNFLLISDDLRSVRSGRIRQNRQDLAERFDVSVCILGSPRFTCGRHCWEVDVGTSTEWDLGVCRESVHRKGRIQLTTELGFWTVSLRDGGRLSATTVPLTFLFVDRKLQRVGIFLDMGMQNVSFFDAESGSHVYTFRSVSAEEPLRPFLAPSVPPNGDQGVLSICPLMNSGTTDAPVRPGEAK
modifications: lentiviral expression
notes: as for B3
Percent Infected R1: 93.8% | Z score R1: 0.07

B6: RNF220: human RING type E3 ligase expressed from lentiviral vector (protein, UniProt Q5VTB9 1-566, looked up)
E3 ubiquitin-protein ligase …: MDLHRAAFKMENSSYLPNPLASPALMVLASTAEASRDASIPCQQPRPFGVPVSVDKDVHIPFTNGSYTFASMYHRQGGVPGTFANRDFPPSLLHLHPQFAPPNLDCTPISMLNHSGVGAFRPFASTEDRESYQSAFTPAKRLKNCHDTESPHLRFSDADGKEYDFGTQLPSSSPGSLKVDDTGKKIFAVSGLISDREASSSPEDRNDRCKKKAAALFDSQAPICPICQVLLRPSELQEHMEQELEQLAQLPSSKNSLLKDAMAPGTPKSLLLSASIKREGESPTASPHSSATDDLHHSDRYQTFLRVRANRQTRLNARIGKMKRRKQDEGQREGSCMAEDDAVDIEHENNNRFEEYEWCGQKRIRATTLLEGGFRGSGFIMCSGKENPDSDADLDVDGDDTLEYGKPQYTEADVIPCTGEEPGEAKEREALRGAVLNGGPPSTRITPEFSKWASDEMPSTSNGESSKQEAMQKTCKNSDIEKITEDSAVTTFEALKARVRELERQLSRGDRYKCLICMDSYSMPLTSIQCWHVHCEECWLRTLGAKKLCPQCNTITAPGDLRRIYL
Percent Infected R1: 96.6% | Z score R1: 0.1

B7: MARCH5: human RING type E3 ligase expressed from lentiviral vector (protein, UniProt Q9NX47 1-278, looked up)
E3 ubiquitin-protein ligase …: MPDQALQQMLDRSCWVCFATDEDDRTAEWVRPCRCRGSTKWVHQACLQRWVDEKQRGNSTARVACPQCNAEYLIVFPKLGPVVYVLDLADRLISKACPFAAAGIMVGSIYWTAVTYGAVTVMQVVGHKEGLDVMERADPLFLLIGLPTIPVMLILGKMIRWEDYVLRLWRKYSNKLQILNSIFPGIGCPVPRIPAEANPLADHVSATRILCGALVFPTIATIVGKLMFSSVNSNLQRTILGGIAFVAIKGAFKVYFKQQQYLRQAHRKILNYPEQEEA
Percent Infected R1: 91.5% | Z score R1: 0.04

B8: RNFT1: human RING type E3 ligase expressed from lentiviral vector (protein, UniProt Q5M7Z0 1-435, looked up)
E3 ubiquitin-protein ligase …: MPLFLLSLPTPPSASGHERRQRPEAKTSGSEKKYLRAMQANRSQLHSPPGTGSSEDASTPQCVHTRLTGEGSCPHSGDVHIQINSIPKECAENASSRNIRSGVHSCAHGCVHSRLRGHSHSEARLTDDTAAESGDHGSSSFSEFRYLFKWLQKSLPYILILSVKLVMQHITGISLGIGLLTTFMYANKSIVNQVFLRERSSKIQCAWLLVFLAGSSVLLYYTFHSQSLYYSLIFLNPTLDHLSFWEVFWIVGITDFILKFFFMGLKCLILLVPSFIMPFKSKGYWYMLLEELCQYYRTFVPIPVWFRYLISYGEFGNVTRWSLGILLALLYLILKLLEFFGHLRTFRQVLRIFFTQPSYGVAASKRQCSDVDDICSICQAEFQKPILLICQHIFCEECMTLWFNREKTCPLCRTVISDHINKWKDGATSSHLQIY
modifications: lentiviral expression
notes: as for B3
Percent Infected R1: 95.2% | Z score R1: 0.08

B9: RNF38: human RING type E3 ligase expressed from lentiviral vector (protein, UniProt Q9H0F5 1-515, looked up)
E3 ubiquitin-protein ligase …: MACKISPGANSASLPGHPNKVICERVRLQSLFPLLPSDQNTTVQEDAHFKAFFQSEDSPSPKRQRLSHSVFDYTSASPAPSPPMRPWEMTSNRQPPSVRPSQHHFSGERCNTPARNRRSPPVRRQRGRRDRLSRHNSISQDENYHHLPYAQQQAIEEPRAFHPPNVSPRLLHPAAHPPQQNAVMVDIHDQLHQGTVPVSYTVTTVAPHGIPLCTGQHIPACSTQQVPGCSVVFSGQHLPVCSVPPPMLQACSVQHLPVPYAAFPPLISSDPFLIHPPHLSPHHPPHLPPPGQFVPFQTQQSRSPLQRIENEVELLGEHLPVGGFTYPPSAHPPTLPPSAPLQFLTHDPLHQEVSFGVPYPPFMPRRLTGRSRYRSQQPIPPPPYHPSLLPYVLSMLPVPPAVGPTFSFELDVEDGEVENYEALLNLAERLGEAKPRGLTKADIEQLPSYRFNPNNHQSEQTLCVVCMCDFESRQLLRVLPCNHEFHAKCVDKWLKANRTCPICRADASEVHRDSE
Percent Infected R1: 88.2% | Z score R1: −0.01

B10: ZNRF1: human RING type E3 ligase expressed from lentiviral vector (protein, UniProt Q8ND25 2-227, looked up)
E3 ubiquitin-protein ligase …: GGKQSTAARSRGPFPGVSTDDSAVPPPGGAPHFGHYRTGGGAMGLRSRSVSSVAGMGMDPSTAGGVPFGLYTPASRGTGDSERAPGGGGSASDSTYAHGNGYQETGGGHHRDGMLYLGSRASLADALPLHIAPRWFSSHSGFKCPICSKSVASDEMEMHFIMCLSKPRLSYNDDVLTKDAGECVICLEELLQGDTIARLPCLCIYHKSCIDSWFEVNRSCPEHPAD
modifications: lentiviral expression
notes: as for B3
Percent Infected R1: 95.8% | Z score R1: 0.09

B11: RNF4: human RING type E3 ligase expressed from lentiviral vector (protein, UniProt P78317 1-190, looked up)
E3 ubiquitin-protein ligase …: MSTRKRRGGAINSRQAQKRTREATSTPEISLEAEPIELVETAGDEIVDLTCESLEPVVVDLTHNDSVVIVDERRRPRRNARRLPQDHADSCVVSSDDEELSRDRDVYVTTHTPRNARDEGATGLRPSGTVSCPICMDGYSEIVQNGRLIVSTECGHVFCSQCLRDSLKNANTCPTCRKKINHKRYHPIYI
modifications: lentiviral expression
notes: as for B3
Percent Infected R1: 93.3% | Z score R1: 0.06
